Measurements: patent US7067713

target: C1s (Kordia, The Netherlands/Enzyme Research Lab. Inc., USA) (UniProt P09871); experiment: cell-based or functional assay
Sequence of UniProt P09871 (P09871 16-688 limits assumed): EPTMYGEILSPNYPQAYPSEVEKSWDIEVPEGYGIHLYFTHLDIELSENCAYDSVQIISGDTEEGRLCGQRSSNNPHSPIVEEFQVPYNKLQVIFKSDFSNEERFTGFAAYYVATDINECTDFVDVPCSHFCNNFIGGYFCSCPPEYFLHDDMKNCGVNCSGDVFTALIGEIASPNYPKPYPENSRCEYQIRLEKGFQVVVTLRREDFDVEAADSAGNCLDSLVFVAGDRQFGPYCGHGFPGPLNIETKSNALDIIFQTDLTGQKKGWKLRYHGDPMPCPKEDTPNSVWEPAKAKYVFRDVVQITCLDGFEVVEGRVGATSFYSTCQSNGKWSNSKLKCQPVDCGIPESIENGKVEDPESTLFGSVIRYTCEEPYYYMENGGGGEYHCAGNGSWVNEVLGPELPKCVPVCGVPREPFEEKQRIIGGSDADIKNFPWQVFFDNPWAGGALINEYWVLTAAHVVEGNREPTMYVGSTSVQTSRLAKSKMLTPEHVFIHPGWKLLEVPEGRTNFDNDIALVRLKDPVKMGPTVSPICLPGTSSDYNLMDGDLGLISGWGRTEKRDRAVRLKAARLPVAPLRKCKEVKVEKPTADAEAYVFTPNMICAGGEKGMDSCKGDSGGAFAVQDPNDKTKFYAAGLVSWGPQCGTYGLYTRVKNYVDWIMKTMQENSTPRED

Substance	functionality index (F.I.): ratio between functionally active C1 inhibitor (C1s inhibition test) and total C1 inhibitor antigen
Cetor (C1 inhibitor purified from pooled human plasma, CLB, The Netherlands) (from UniProt P05155 23-500)	1.07
recombinant human C1 inhibitor purified from milk of transgenic rabbit line 2972p (from UniProt P05155 23-500)	1.15
recombinant human C1 inhibitor purified from milk of transgenic rabbit line 2972q (from UniProt P05155 23-500)	1.07
recombinant human C1 inhibitor purified from milk of transgenic rabbit line 2977q (from UniProt P05155 23-500)	0.91
